Test results as given in patent publication US20120077730A1.

Target: human C5a receptor (C5aR) (human) (UniProt P21730)
Experiment: cell-based or functional assay

Sequence of UniProt P21730 (P21730 whole entry): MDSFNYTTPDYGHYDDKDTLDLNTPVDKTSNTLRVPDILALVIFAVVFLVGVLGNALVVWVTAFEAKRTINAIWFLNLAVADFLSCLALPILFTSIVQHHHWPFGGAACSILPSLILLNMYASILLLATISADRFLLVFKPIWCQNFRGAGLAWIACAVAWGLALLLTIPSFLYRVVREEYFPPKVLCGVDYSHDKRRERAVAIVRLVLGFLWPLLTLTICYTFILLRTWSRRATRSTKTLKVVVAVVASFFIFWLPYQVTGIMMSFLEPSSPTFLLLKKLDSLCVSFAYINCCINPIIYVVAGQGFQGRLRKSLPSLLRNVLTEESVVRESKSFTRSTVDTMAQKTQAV

Substance | C5aR blocking activity relative to wt CHIPS1-121 (% of wt CHIPS1-121) | Chemotaxis IC50 [µg/mL]
CHIPS variant clone 376 (ADC-1004; CHIPS ΔN/C format) (from UniProt A6QIG7 31-113) | > 25 | 0.5
CHIPS ΔN/C (CHIPS31-113) (from UniProt A6QIG7 59-141) | – | 0.5
Wild-type (Wt) CHIPS1-121 (from UniProt A6QIG7 29-149) | – | 0.1
